Measurements as given in paper PMC5780041, “Endosomal Rab cycles regulate Parkin-mediated mitophagy” (eLife, 2018).

Columns and labels:
[1] = target: T1, S65 phosphorylated ubiquitin produced in bacterial cells (human, UniProt P0CG48 1-76, S65 phosphorylated); assay: ITC; 18 injections of 2 μl of 300 μM ubiquitin or phosphorylated ubiquitin into 200 μl of 30 μM GST-mRABGEF1 in the cell; 25°C; TBS buffer; single site binding model; conditions: both partners purified
T1 construct: human ubiquitin, the 76-residue mature product, from pET21a(+)/1xUb; Same construct as m13, phosphorylated in the bacteria by co-expressed membrane-anchored TcPINK1; also called monomeric phosphorylated ubiquitin; source: Superdex 75)

[2] = target: T2, 1x human ubiquitin (C-terminal His-tagged) (human, UniProt P0CG48 1-76); assay: as above; conditions: both partners purified
T2 construct: human ubiquitin, the 76-residue mature product (primers from the ATG to the codons of the last two glycines); In pET21a(+) between BamHI and XhoI; also called 1x ubiquitin; 1 × Ub; source: E. coli BL21-CodonPlus(DE3)-RIL, purified (Ni-NTA; for ITC also Superdex 75)

B1: GST-tagged mouse RABGEF1 (WT) 1-74aa (domain or fragment)
chain: not shown
notes: Expressed with 50 μM ZnCl2 in the medium; also called GST-mRABGEF1 (WT); GST-mRABGEF1 WT; source: E. coli BL21-CodonPlus(DE3)-RIL, purified (glutathione-Sepharose 4B; for ITC also Superdex 75); not shown: GST, N-terminal, kept
Kd [1]: 5.6 µM | Kd [2]: 2.2 µM
